Data as given in patent US20040175720A1 (NEW YORK UNIVERSITY, published 2004).

T1: B42-NIF-1 (full-length), B42 activation domain fusion expressed from pJG4-5 in yeast (human, UniProt Q9H4Z2 1-1342)
T1 construct: also called NIF-1 expressed as a B42-fusion
T1 sequence: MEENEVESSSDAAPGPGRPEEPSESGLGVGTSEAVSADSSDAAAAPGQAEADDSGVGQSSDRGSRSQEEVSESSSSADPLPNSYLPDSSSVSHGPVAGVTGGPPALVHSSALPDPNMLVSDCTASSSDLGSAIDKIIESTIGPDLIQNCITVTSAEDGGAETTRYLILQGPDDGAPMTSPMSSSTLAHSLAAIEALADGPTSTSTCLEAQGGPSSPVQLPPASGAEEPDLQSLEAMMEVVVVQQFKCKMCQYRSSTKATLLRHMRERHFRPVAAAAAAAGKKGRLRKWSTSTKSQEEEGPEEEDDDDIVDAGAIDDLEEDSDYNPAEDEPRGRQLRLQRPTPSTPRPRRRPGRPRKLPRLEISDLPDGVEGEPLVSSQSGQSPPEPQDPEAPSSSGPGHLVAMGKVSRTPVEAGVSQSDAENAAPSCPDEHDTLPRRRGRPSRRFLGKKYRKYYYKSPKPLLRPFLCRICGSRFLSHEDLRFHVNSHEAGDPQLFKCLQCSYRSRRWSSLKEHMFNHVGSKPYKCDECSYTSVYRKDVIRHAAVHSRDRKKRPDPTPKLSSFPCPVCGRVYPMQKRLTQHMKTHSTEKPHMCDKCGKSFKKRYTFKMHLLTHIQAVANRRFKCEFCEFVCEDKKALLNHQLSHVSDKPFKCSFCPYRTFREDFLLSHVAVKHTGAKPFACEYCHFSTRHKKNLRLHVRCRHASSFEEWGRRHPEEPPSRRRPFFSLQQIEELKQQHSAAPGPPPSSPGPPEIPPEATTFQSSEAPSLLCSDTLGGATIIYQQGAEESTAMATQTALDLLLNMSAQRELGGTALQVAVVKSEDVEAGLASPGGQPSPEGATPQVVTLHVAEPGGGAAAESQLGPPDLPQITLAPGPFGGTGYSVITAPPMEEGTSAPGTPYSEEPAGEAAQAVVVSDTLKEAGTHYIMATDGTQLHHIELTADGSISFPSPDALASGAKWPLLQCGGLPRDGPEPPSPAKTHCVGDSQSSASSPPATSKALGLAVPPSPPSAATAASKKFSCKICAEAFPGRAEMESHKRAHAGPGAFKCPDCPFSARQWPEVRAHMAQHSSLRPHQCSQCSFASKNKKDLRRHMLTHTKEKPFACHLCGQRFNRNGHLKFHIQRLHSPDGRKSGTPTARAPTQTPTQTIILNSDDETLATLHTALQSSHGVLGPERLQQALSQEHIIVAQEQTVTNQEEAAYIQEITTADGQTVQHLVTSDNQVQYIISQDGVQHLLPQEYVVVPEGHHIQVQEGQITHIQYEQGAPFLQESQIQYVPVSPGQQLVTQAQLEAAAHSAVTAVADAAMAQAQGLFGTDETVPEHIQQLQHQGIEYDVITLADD

B1: NIF-1 (NRC Interacting Factor-1), full-length human, untagged (other)
chain: T1 sequence
modifications: ^35S-L-methionine label in the in vitro binding assay
B2: LexA-human ERα-LBD (LexA fusion of the ligand binding domain of hERα) (receptor, UniProt P0A7C2 1-202, looked up)
chain: MKALTARQQEVFDLIRDHISQTGMPPTRAEIAQRLGFRSPNAAEEHLKALARKGVIEIVSGASRGIRLLQEEEEGLPLVGRVAAGEPLLAQQHIEGHYQVDPSLFKPNADFLLRVSGMSMKDIGIMDGDLLAVHKTQDVRNGQVVVARIDDEVTVKRLKKQGNKVELLPENSEFKPIVVDLRQQSFTIEGLAVGVIRNGDWLSAGDMRAANLWPSPLMIKRSKKNSLALSLTADQMVSALLDAEPPILYSEYDPTRPFSEASMMGLLTNLADRELVHMINWAKRVPGFVDLTLHDQVHLLECAWLEILMIGLVWRSMEHPGKLLFAPNLLLDRNQGKCVEGMVEIFDMLLATSSRFRMMNLQGEEFVCLKSIILLNSGVYTFLSSTLKSLEEKDHIHRVLDKITDTLIHLMAKAGLTLQQQHQRLAQLLLILSHIRHMSNKGMEHLYSMKCKNVVPLYDLLLEMLDAHRLHAPTSRGGASVEETDQSHLATAGSTSSHSLQKYYITGEAEGFPATV
notes: domain: LexA DBD;domain: LBD; also called hERa; ERa
B3: LexA-cTRα LBD (LexA fusion of the ligand binding domain of cTRα) (receptor, UniProt P0A7C2 1-202, looked up)
chain: MKALTARQQEVFDLIRDHISQTGMPPTRAEIAQRLGFRSPNAAEEHLKALARKGVIEIVSGASRGIRLLQEEEEGLPLVGRVAAGEPLLAQQHIEGHYQVDPSLFKPNADFLLRVSGMSMKDIGIMDGDLLAVHKTQDVRNGQVVVARIDDEVTVKRLKKQGNKVELLPENSEFKPIVVDLRQQSFTIEGLAVGVIRNGDWLMDLVLDDSKRVAKRKLIEENRERRRKEEMIKSLQHRPSPSAEEWELIHVVTEAHRSTNAQGSHWKQKRKFLPEDIGQSPMASMPDGDKVDLEAFSEFTKIITPAITRVVDFAKKLPMFSELPCEDQIILLKGCCMEIMSLRAAVRYDPESETLTLSGEMAVKREQLKNGGLGVVSDAIFDLGKSLSAFNLDDTEVALLQAVLLMSSDRTGLICVDKIEKCQETYLLAFEHYINYRKHNIPHFWPKLLMKVTDLRMIGACHASRFLHMKVECPTELFPPLFLEVFEDQEV
notes: domain: LexA DBD;domain: LBD; also called cTRa
B4: LexA-hRXRα LBD (LexA fusion of the ligand binding domain of hRXRα) (receptor, UniProt P0A7C2 1-202, looked up)
chain: MKALTARQQEVFDLIRDHISQTGMPPTRAEIAQRLGFRSPNAAEEHLKALARKGVIEIVSGASRGIRLLQEEEEGLPLVGRVAAGEPLLAQQHIEGHYQVDPSLFKPNADFLLRVSGMSMKDIGIMDGDLLAVHKTQDVRNGQVVVARIDDEVTVKRLKKQGNKVELLPENSEFKPIVVDLRQQSFTIEGLAVGVIRNGDWLMGMKREAVQEERQRGKDRNENEVESTSSANEDMPVERILEAELAVEPKTETYVEANMGLNPSSPNDPVTNICQAADKQLFTLVEWAKRIPHFSELPLDDQVILLRAGWNELLIASFSHRSIAVKDGILLATGLHVHRNSAHSAGVGAIFDRVLTELVSKMRDMQMDKTELGCLRAIVLFNPDSKGLSNPAEVEALREKVYASLEAYCKHKYPEQPGRFAKLLLRLPALRSIGLKCLEHLFFFKLIGDTPIDTFLMEMLEAPHQMT
notes: domain: LexA DBD;domain: LBD
B5: LexA-hRARα LBD (LexA fusion of the ligand binding domain of hRARα) (receptor, UniProt P0A7C2 1-202, looked up)
chain: MKALTARQQEVFDLIRDHISQTGMPPTRAEIAQRLGFRSPNAAEEHLKALARKGVIEIVSGASRGIRLLQEEEEGLPLVGRVAAGEPLLAQQHIEGHYQVDPSLFKPNADFLLRVSGMSMKDIGIMDGDLLAVHKTQDVRNGQVVVARIDDEVTVKRLKKQGNKVELLPENSEFKPIVVDLRQQSFTIEGLAVGVIRNGDWLSKESVRNDRNKKKKEVPKPECSESYTLTPEVGELIEKVRKAHQETFPALCQLGKYTTNNSSEQRVSLDIDLWDKFSELSTKCIIKTVEFAKQLPGFTTLTIADQITLLKAACLDILILRICTRYTPEQDTMTFSDGLTLNRTQMHNAGFGPLTDLVFAFANQLLPLEMDDAETGLLSAICLICGDRQDLEQPDRVDMLQEPLLEALKVYVRKRRPSRPHMFPKMLMKITDLRSISAKGAERVITLKMEIPGSMPPLIQEMLENSEGLDTLSGQPGGGGRDGGGLAPPPGSCSPSLSPSSNRSSPATHSP
notes: domain: LexA DBD;domain: LBD
B6: LexA-hGR LBD (LexA fusion of the ligand binding domain of hGR) (receptor, UniProt P0A7C2 1-202, looked up)
chain: MKALTARQQEVFDLIRDHISQTGMPPTRAEIAQRLGFRSPNAAEEHLKALARKGVIEIVSGASRGIRLLQEEEEGLPLVGRVAAGEPLLAQQHIEGHYQVDPSLFKPNADFLLRVSGMSMKDIGIMDGDLLAVHKTQDVRNGQVVVARIDDEVTVKRLKKQGNKVELLPENSEFKPIVVDLRQQSFTIEGLAVGVIRNGDWLGMNLEARKTKKKIKGIQQATTGVSQETSENPGNKTIVPATLPQLTPTLVSLLEVIEPEVLYAGYDSSVPDSTWRIMTTLNMLGGRQVIAAVKWAKAIPGFRNLHLDDQMTLLQYSWMFLMAFALGWRSYRQSSANLLCFAPDLIINEQRMTLPCMYDQCKHMLYVSSELHRLQVSYEEYLCMKTLLLLSSVPKDGLKSQELFDEIRMTYIKELGKAIVKREGNSSQNWQRFYQLTKLLDSMHEVVENLLNYCFQTFLDKTMSIEFPEMLAEIITNQIPKYSNGNIKKLLFHQK
notes: domain: LexA DBD;domain: LBD
B7: LexA-hPPARα LBD (LexA fusion of the ligand binding domain of hPPARα) (receptor, UniProt P0A7C2 1-202, looked up)
chain: MKALTARQQEVFDLIRDHISQTGMPPTRAEIAQRLGFRSPNAAEEHLKALARKGVIEIVSGASRGIRLLQEEEEGLPLVGRVAAGEPLLAQQHIEGHYQVDPSLFKPNADFLLRVSGMSMKDIGIMDGDLLAVHKTQDVRNGQVVVARIDDEVTVKRLKKQGNKVELLPENSEFKPIVVDLRQQSFTIEGLAVGVIRNGDWLSHNAIRFGRMPRSEKAKLKAEILTCEHDIEDSETADLKSLAKRIYEAYLKNFNMNKVKARVILSGKASNNPPFVIHDMETLCMAEKTLVAKLVANGIQNKEAEVRIFHCCQCTSVETVTELTEFAKAIPGFANLDLNDQVTLLKYGVYEAIFAMLSSVMNKDGMLVAYGNGFITREFLKSLRKPFCDIMEPKFDFAMKFNALELDDSDISLFVAAIICCGDRPGLLNVGHIEKMQEGIVHVLRLHLQSNHPDDIFLFPKLLQKMADLRQLVTEHAQLVQIIKKTESDAALHPLLQEIYRDMY
notes: domain: LexA DBD;domain: LBD

target: Human NRC expressed from pEX-NRC in HeLa cells (human, UniProt Q14686 1-2063); assay: cell-based or functional assay
Sequence (Q14686 whole entry): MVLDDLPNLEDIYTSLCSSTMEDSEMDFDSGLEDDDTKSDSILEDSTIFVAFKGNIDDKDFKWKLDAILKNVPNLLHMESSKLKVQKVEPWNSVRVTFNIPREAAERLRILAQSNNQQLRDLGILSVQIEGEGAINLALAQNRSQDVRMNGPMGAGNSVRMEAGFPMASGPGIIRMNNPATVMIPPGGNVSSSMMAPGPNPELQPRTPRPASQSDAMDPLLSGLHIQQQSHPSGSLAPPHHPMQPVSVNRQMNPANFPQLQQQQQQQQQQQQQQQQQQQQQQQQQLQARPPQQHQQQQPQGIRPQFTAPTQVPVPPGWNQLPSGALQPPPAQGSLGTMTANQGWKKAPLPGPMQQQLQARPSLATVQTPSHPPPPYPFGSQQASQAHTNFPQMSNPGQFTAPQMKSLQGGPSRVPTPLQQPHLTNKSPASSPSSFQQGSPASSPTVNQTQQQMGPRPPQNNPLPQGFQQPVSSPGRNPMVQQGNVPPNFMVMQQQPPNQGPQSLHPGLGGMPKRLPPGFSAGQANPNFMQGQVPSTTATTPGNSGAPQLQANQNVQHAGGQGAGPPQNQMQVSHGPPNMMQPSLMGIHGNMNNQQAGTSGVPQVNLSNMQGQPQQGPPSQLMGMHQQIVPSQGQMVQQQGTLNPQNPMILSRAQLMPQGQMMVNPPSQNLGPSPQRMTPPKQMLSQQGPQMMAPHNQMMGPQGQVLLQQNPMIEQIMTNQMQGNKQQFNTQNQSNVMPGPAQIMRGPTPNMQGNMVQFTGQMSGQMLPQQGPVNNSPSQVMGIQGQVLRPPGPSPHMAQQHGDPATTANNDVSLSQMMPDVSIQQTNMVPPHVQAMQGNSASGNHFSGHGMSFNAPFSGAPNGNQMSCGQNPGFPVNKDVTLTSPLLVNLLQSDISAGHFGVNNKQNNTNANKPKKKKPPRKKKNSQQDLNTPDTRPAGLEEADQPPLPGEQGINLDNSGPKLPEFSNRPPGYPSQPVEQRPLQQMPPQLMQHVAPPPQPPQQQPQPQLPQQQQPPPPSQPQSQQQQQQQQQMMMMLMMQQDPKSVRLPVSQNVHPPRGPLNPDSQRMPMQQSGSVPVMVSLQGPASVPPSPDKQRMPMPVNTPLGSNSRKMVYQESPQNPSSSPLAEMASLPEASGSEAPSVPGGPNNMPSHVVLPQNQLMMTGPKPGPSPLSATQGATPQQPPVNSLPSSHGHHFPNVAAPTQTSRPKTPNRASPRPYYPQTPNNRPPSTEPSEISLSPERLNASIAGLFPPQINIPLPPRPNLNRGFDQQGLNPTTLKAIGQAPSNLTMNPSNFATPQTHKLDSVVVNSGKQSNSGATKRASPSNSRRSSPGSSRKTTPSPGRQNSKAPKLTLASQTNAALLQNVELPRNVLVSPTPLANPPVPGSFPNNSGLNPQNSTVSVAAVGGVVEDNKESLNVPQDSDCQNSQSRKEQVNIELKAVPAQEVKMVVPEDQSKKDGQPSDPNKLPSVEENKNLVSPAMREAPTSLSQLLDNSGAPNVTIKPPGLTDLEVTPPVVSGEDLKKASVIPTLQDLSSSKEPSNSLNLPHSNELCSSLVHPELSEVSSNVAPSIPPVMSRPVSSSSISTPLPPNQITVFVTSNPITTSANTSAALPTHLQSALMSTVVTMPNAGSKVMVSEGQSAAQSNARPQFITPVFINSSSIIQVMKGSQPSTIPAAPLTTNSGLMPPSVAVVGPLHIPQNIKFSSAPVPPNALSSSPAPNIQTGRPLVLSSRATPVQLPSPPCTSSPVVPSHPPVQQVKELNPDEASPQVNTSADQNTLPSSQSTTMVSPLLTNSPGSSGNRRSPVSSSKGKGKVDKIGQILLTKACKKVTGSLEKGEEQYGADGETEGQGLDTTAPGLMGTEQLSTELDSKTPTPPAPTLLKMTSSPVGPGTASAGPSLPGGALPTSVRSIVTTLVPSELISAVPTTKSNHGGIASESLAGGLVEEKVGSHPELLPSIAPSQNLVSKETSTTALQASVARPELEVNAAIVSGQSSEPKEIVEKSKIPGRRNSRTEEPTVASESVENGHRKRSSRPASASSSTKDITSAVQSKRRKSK

Binder | activity of the -73 collagenase-CAT reporter gene in HeLa cells (fold increase) [fold]
B1 | 12

target: T1, B42-NIF-1 (full-length), B42 activation …; assay: yeast two-hybrid, B42-NIF-1 (full-length) against LexA-LBD, β-galactosidase
Protocol: To examine for this possibility, the interaction of B42-NIF-1 (full-length), conditionally expressed from pJG4-5, was studied with LexA fusions of nuclear receptor LBDs (cTRα, ERa, RXRα, GR, RARα, and PPARα) in yeast, as shown in FIG. 7. In addition, a LexA-fusion of full-length cTRα was also tested against B42-NIF-1 (full-length) and gave similar results as with the cTRα LBD. […] To document that the LexA-LBD fusions were expressed and responded to ligand in yeast, similar studies were carried out with B42-NRC.

Binder | binding result
B2 | no binding
B3 | no binding
B4 | no binding
B5 | no binding
B6 | no binding
B7 | no binding
